From paper PMC4691197 (PLoS ONE, 2015)
Substitutions are numbered along the chain they refer to. Names may count otherwise.

B1: YFP αB CD (core domain of αB-crystallin, 65–146 amino acids) (domain or fragment, UniProt P02511 65-146, looked up)
chain: LSEMRLEKDRFSVNLDVKHFSPEELKVKVLGDVIEVHGKHEERQDEHGFISREFHRKYRIPADVDPLTITSSLSSDGVLTVN
notes: αB-crystallin core domain, residues 65-146; also called αB CD-YFP; source: HeLa, transfected, in live cells
B2: YFP WT αB-crystallin (natural protein, UniProt P02511 1-175, looked up)
chain: MDIAIHHPWIRRPFFPFHSPSRLFDQFFGEHLLESDLFPTSTSLSPFYLRPPSFLRAPSWFDTGLSEMRLEKDRFSVNLDVKHFSPEELKVKVLGDVIEVHGKHEERQDEHGFISREFHRKYRIPADVDPLTITSSLSSDGVLTVNGPRKQVSGPERTIPITREEKPAVTAAPKK
notes: αB-crystallin, wild type, in pZS Yellow1-N1; Surmise: whole αB-crystallin (1-175, as the domain limits imply) with the fluorescent protein at the C-terminus (N1 vector); Expressed as ~46 kDa protein; also called WT YFP αB-crystallin; YFP αB; source: HeLa, transfected, in live cells
B3: YFP αB N146D crystallin (natural protein, UniProt P02511 1-175, looked up)
chain: B2 chain with N146D
notes: αB-crystallin N146D, made by site-directed mutagenesis of the pZS Yellow1-N1 construct of αB-crystallin; Same limits as m12; source: HeLa, transfected, in live cells
B4: YFP αB N78D crystallin (natural protein, UniProt P02511 1-175, looked up)
chain: B2 chain with N78D
notes: αB-crystallin N78D, made by site-directed mutagenesis of the pZS Yellow1-N1 construct of αB-crystallin; Same limits as m12; source: HeLa, transfected, in live cells
B5: YFP αB CTE (C-terminal extension of αB-crystallin, 147–175 amino acids) (domain or fragment, UniProt P02511 147-175, looked up)
chain: GPRKQVSGPERTIPITREEKPAVTAAPKK
notes: αB-crystallin C-terminal extension, residues 147-175; also called αB CTE-YFP; source: HeLa, transfected, in live cells
B6: YFP αB NTD (N-terminal domain of αB-crystallin, 1–64 amino acids) (domain or fragment, UniProt P02511 1-64, looked up)
chain: MDIAIHHPWIRRPFFPFHSPSRLFDQFFGEHLLESDLFPTSTSLSPFYLRPPSFLRAPSWFDTG
notes: αB-crystallin N-terminal domain, residues 1-64; also called αB NTD-YFP; source: HeLa, transfected, in live cells
B7: Recombinant His-tagged WT αB-crystallin (natural protein, UniProt P02511 1-175, looked up)
chain: B2 chain
notes: αB-crystallin, wild type; Surmise: N-terminal His tag from pET 28b
B8: Recombinant His-tagged αB-crystallin N146D (natural protein, UniProt P02511 1-175, looked up)
chain: B2 chain with N146D
notes: αB-crystallin with the deamidation-mimicking change N146D, made by site-directed mutagenesis of the pET 28b construct of WT αB; Surmise: N-terminal His tag from pET 28b; also called αB N146D
B9: Recombinant His-tagged αB-crystallin N78D (natural protein, UniProt P02511 1-175, looked up)
chain: B2 chain with N78D
notes: αB-crystallin with the deamidation-mimicking change N78D, made by site-directed mutagenesis of the pET 28b construct of WT αB; Surmise: N-terminal His tag from pET 28b; also called αB N78D

Each binder was assayed against T1, CFP WT βA3-crystallin (UniProt P05813 1-215) (assay: FRET or BRET; FLIM-FRET in live HeLa cells co-transfected with CFP βA3-crystallin (donor) and YFP-tagged acceptors; donor life-time after 405 nm pulsed excitation; E = 1-TFRET/TCFP with TCFP 2.8 ns; 5-6 cells from 3 samples). Settings: partners not purified.
T1 construct: βA3-crystallin, wild type; Surmise: N1 vectors place the fluorescent protein at the C-terminus of the insert; Expressed as ~51 kDa protein; degraded products were also seen on blots; also called CFP βA3-crystallin; βA3- CFP; source: HeLa, transfected, in live cells
With B1 the FRET efficiency was 14% and the “mean life-time of the donor CFP βA3-crystallin” value (from here on “mean life-time”) was 2.5 ± 0.2 ns.
With B2 the FRET efficiency was 18% and the “mean life-time” value was 2.4 ± 0.2 ns.
In the case of B3, the FRET efficiency is reported as 22% and the “mean life-time” value is reported as 2.2 ± 0.3 ns.
For B4, the FRET efficiency was 36% and the “mean life-time” value was 1.6 ± 0.3 ns.
For B5, the FRET efficiency was 14% and the “mean life-time” value was 2.5 ± 0.2 ns.
For B6, the FRET efficiency was 32% and the “mean life-time” value was 2.1 ± 0.3 ns.

The binders below were run against T2, Recombinant His-tagged WT βA3-crystallin (UniProt P05813 1-215) (assay: SPR; BIACORE 2000; βA3-crystallin immobilised on a CM5 chip by EDC/NHS to ~2500 RU; analytes 5 μM-25 μM at 20 μL/min; room temperature; 50 mM sodium phosphate, pH 7.8, 150 mM NaCl; regeneration with 1 M NaCl; duplicates; 1:1 Langmuir fit). Settings: both partners purified.
T2 construct: βA3-crystallin, wild type; Surmise: cloning into Nhe I/Xho I of pET 28b with a stop codon in the insert gives an N-terminal His tag; no cleavage is mentioned
With B7 the Kd was 5.75 nM.
For B8, the Kd was 5.05 nM.
B9 gave a Kd of 2.46 nM.
